For one test, the target named is human Fas (human) (UniProt P25445). The experiment in a line: cell-based or functional assay.
For the next test, the target named is T1, human FADD (human, UniProt Q13158 1-208, limits assumed).
T1 construct: also called MORT-1
T1 sequence (looked up): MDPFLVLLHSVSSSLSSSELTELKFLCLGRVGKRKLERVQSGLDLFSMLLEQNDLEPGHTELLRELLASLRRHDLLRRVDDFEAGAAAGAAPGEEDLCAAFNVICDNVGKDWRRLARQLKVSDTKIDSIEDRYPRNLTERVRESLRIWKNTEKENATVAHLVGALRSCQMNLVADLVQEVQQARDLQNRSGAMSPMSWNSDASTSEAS
Description: co-immunoprecipitation and immunoblot after transient transfection. The source says:
The interaction of LFG with components of the Fas signaling pathway was investigated. Fas and LFG can be co-immunoprecipitated following transient transfection.

Sequence of human Fas (human) (P25445 26-335): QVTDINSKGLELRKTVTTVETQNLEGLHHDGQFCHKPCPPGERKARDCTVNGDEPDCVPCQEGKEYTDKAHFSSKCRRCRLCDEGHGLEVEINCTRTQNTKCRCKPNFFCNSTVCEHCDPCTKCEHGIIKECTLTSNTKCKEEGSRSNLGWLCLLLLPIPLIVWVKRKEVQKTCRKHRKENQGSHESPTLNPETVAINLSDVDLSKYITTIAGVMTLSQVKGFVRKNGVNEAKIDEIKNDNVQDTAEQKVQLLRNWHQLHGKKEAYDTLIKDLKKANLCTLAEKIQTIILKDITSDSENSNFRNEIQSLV

As for “mouse anti-human Fas agonistic antibody (CH11)”, the cell survival of HeLa cells 72 hr after treatment with CH11 in the test with human Fas (human) worked out at 17%.

B1: amino-terminal myc epitope-tagged LFG (myc-LFG) (other, not shown: small tags and cut ends)
chain: MTRGKLSVANKAPGTEGQQQVHGEKKEAPAVPSAPPSYEEATSGEGMKAGAFPPAPTAVPLHPSWAYVDPSSSSSYDNGFPPETMSSSPLSAGMTKKVRRVFVRKVYTILLIQLLVTLAVVALFTFCDPCQGLCSGQPGWYWASYAVFFATYLTLACCSGPRRHFPWNLILLTVFTLSMAYLTGMLSSYYNTTSVLLCLGITALVCLSVTVFSFQTKFDFTSCQGVLFVLLMTLFFSGLILAILLPFQYVPWLHAVYAALGAGVFTLFLALDTQLLMGNRRHSLSPEEYIFGALNIYLDIIYIFTFFLQLFGTNRE
notes: Expressed from an expression vector by transient transfection (HeLa, 293 cells) and found by immunoprecipitation and immunoblot; also called lifeguard
As for B1, in the test with human FADD, the binding result is “no binding”.

The values are drawn from US6500940 (SALK INSTITUTE FOR BIOLOGICAL STUDIES, dated 2002).
